The values below come from patent US20230220021A1 (UNIVERSITY OF COPENHAGEN, published 2023).

[ ]: non-standard residue; d: D form.

B1: cyclic nNOS β-hairpin peptide H106Y (peptide)
peptide: cyclo(TYLETTFTGDGTPKTIRVTQ[dP]GQ)
SMILES: CC[C@H](C)[C@@H]1NC(=O)[C@H]([C@@H](C)O)NC(=O)[C@H](CCCCN)NC(=O)[C@@H]2CCCN2C(=O)[C@H]([C@@H](C)O)NC(=O)CNC(=O)[C@H](CC(=O)O)NC(=O)CNC(=O)[C@H]([C@@H](C)O)NC(=O)[C@H](Cc2ccccc2)NC(=O)[C@H]([C@@H](C)O)NC(=O)[C@H]([C@@H](C)O)NC(=O)[C@H](CCC(=O)O)NC(=O)[C@H](CC(C)C)NC(=O)[C@H](Cc2ccc(O)cc2)NC(=O)[C@H]([C@@H](C)O)NC(=O)[C@H](CCC(N)=O)NC(=O)CNC(=O)[C@H]2CCCN2C(=O)[C@H](CCC(N)=O)NC(=O)[C@H]([C@@H](C)O)NC(=O)[C@H](C(C)C)NC(=O)[C@H](CCCNC(=N)N)NC1=O
B2: cyclic nNOS β-hairpin peptide I120R (peptide)
peptide: cyclo(THLETTFTGDGTPKTRRVTQ[dP]GQ)
SMILES: CC(C)C[C@@H]1NC(=O)[C@H](Cc2c[nH]cn2)NC(=O)[C@H]([C@@H](C)O)NC(=O)[C@H](CCC(N)=O)NC(=O)CNC(=O)[C@H]2CCCN2C(=O)[C@H](CCC(N)=O)NC(=O)[C@H]([C@@H](C)O)NC(=O)[C@H](C(C)C)NC(=O)[C@H](CCCNC(=N)N)NC(=O)[C@H](CCCNC(=N)N)NC(=O)[C@H]([C@@H](C)O)NC(=O)[C@H](CCCCN)NC(=O)[C@@H]2CCCN2C(=O)[C@H]([C@@H](C)O)NC(=O)CNC(=O)[C@H](CC(=O)O)NC(=O)CNC(=O)[C@H]([C@@H](C)O)NC(=O)[C@H](Cc2ccccc2)NC(=O)[C@H]([C@@H](C)O)NC(=O)[C@H]([C@@H](C)O)NC(=O)[C@H](CCC(=O)O)NC1=O
B3: cyclic nNOS β-hairpin peptide T116N (peptide)
peptide: cyclo(THLETTFTGDGNPKTIRVTQ[dP]GQ)
SMILES: CC[C@H](C)[C@@H]1NC(=O)[C@H]([C@@H](C)O)NC(=O)[C@H](CCCCN)NC(=O)[C@@H]2CCCN2C(=O)[C@H](CC(N)=O)NC(=O)CNC(=O)[C@H](CC(=O)O)NC(=O)CNC(=O)[C@H]([C@@H](C)O)NC(=O)[C@H](Cc2ccccc2)NC(=O)[C@H]([C@@H](C)O)NC(=O)[C@H]([C@@H](C)O)NC(=O)[C@H](CCC(=O)O)NC(=O)[C@H](CC(C)C)NC(=O)[C@H](Cc2c[nH]cn2)NC(=O)[C@H]([C@@H](C)O)NC(=O)[C@H](CCC(N)=O)NC(=O)CNC(=O)[C@H]2CCCN2C(=O)[C@H](CCC(N)=O)NC(=O)[C@H]([C@@H](C)O)NC(=O)[C@H](C(C)C)NC(=O)[C@H](CCCNC(=N)N)NC1=O
B4: cyclic nNOS β-hairpin peptide T109S (peptide)
peptide: cyclo(THLESTFTGDGTPKTIRVTQ[dP]GQ)
SMILES: CC[C@H](C)[C@@H]1NC(=O)[C@H]([C@@H](C)O)NC(=O)[C@H](CCCCN)NC(=O)[C@@H]2CCCN2C(=O)[C@H]([C@@H](C)O)NC(=O)CNC(=O)[C@H](CC(=O)O)NC(=O)CNC(=O)[C@H]([C@@H](C)O)NC(=O)[C@H](Cc2ccccc2)NC(=O)[C@H]([C@@H](C)O)NC(=O)[C@H](CO)NC(=O)[C@H](CCC(=O)O)NC(=O)[C@H](CC(C)C)NC(=O)[C@H](Cc2c[nH]cn2)NC(=O)[C@H]([C@@H](C)O)NC(=O)[C@H](CCC(N)=O)NC(=O)CNC(=O)[C@H]2CCCN2C(=O)[C@H](CCC(N)=O)NC(=O)[C@H]([C@@H](C)O)NC(=O)[C@H](C(C)C)NC(=O)[C@H](CCCNC(=N)N)NC1=O
B5: cyclic nNOS β-hairpin peptide T116W (peptide)
peptide: cyclo(THLETTFTGDGWPKTIRVTQ[dP]GQ)
SMILES: CC[C@H](C)[C@@H]1NC(=O)[C@H]([C@@H](C)O)NC(=O)[C@H](CCCCN)NC(=O)[C@@H]2CCCN2C(=O)[C@H](Cc2c[nH]c3ccccc23)NC(=O)CNC(=O)[C@H](CC(=O)O)NC(=O)CNC(=O)[C@H]([C@@H](C)O)NC(=O)[C@H](Cc2ccccc2)NC(=O)[C@H]([C@@H](C)O)NC(=O)[C@H]([C@@H](C)O)NC(=O)[C@H](CCC(=O)O)NC(=O)[C@H](CC(C)C)NC(=O)[C@H](Cc2c[nH]cn2)NC(=O)[C@H]([C@@H](C)O)NC(=O)[C@H](CCC(N)=O)NC(=O)CNC(=O)[C@H]2CCCN2C(=O)[C@H](CCC(N)=O)NC(=O)[C@H]([C@@H](C)O)NC(=O)[C@H](C(C)C)NC(=O)[C@H](CCCNC(=N)N)NC1=O
B6: cyclic nNOS β-hairpin peptide T105G (peptide)
peptide: cyclo(GHLETTFTGDGTPKTIRVTQ[dP]GQ)
SMILES: CC[C@H](C)[C@@H]1NC(=O)[C@H]([C@@H](C)O)NC(=O)[C@H](CCCCN)NC(=O)[C@@H]2CCCN2C(=O)[C@H]([C@@H](C)O)NC(=O)CNC(=O)[C@H](CC(=O)O)NC(=O)CNC(=O)[C@H]([C@@H](C)O)NC(=O)[C@H](Cc2ccccc2)NC(=O)[C@H]([C@@H](C)O)NC(=O)[C@H]([C@@H](C)O)NC(=O)[C@H](CCC(=O)O)NC(=O)[C@H](CC(C)C)NC(=O)[C@H](Cc2c[nH]cn2)NC(=O)CNC(=O)[C@H](CCC(N)=O)NC(=O)CNC(=O)[C@H]2CCCN2C(=O)[C@H](CCC(N)=O)NC(=O)[C@H]([C@@H](C)O)NC(=O)[C@H](C(C)C)NC(=O)[C@H](CCCNC(=N)N)NC1=O
B7: cyclic nNOS β-hairpin peptide I120Y (peptide)
peptide: cyclo(THLETTFTGDGTPKTYRVTQ[dP]GQ)
SMILES: CC(C)C[C@@H]1NC(=O)[C@H](Cc2c[nH]cn2)NC(=O)[C@H]([C@@H](C)O)NC(=O)[C@H](CCC(N)=O)NC(=O)CNC(=O)[C@H]2CCCN2C(=O)[C@H](CCC(N)=O)NC(=O)[C@H]([C@@H](C)O)NC(=O)[C@H](C(C)C)NC(=O)[C@H](CCCNC(=N)N)NC(=O)[C@H](Cc2ccc(O)cc2)NC(=O)[C@H]([C@@H](C)O)NC(=O)[C@H](CCCCN)NC(=O)[C@@H]2CCCN2C(=O)[C@H]([C@@H](C)O)NC(=O)CNC(=O)[C@H](CC(=O)O)NC(=O)CNC(=O)[C@H]([C@@H](C)O)NC(=O)[C@H](Cc2ccccc2)NC(=O)[C@H]([C@@H](C)O)NC(=O)[C@H]([C@@H](C)O)NC(=O)[C@H](CCC(=O)O)NC1=O
B8: cyclic nNOS β-hairpin peptide L107K (peptide)
peptide: cyclo(THKETTFTGDGTPKTIRVTQ[dP]GQ)
SMILES: CC[C@H](C)[C@@H]1NC(=O)[C@H]([C@@H](C)O)NC(=O)[C@H](CCCCN)NC(=O)[C@@H]2CCCN2C(=O)[C@H]([C@@H](C)O)NC(=O)CNC(=O)[C@H](CC(=O)O)NC(=O)CNC(=O)[C@H]([C@@H](C)O)NC(=O)[C@H](Cc2ccccc2)NC(=O)[C@H]([C@@H](C)O)NC(=O)[C@H]([C@@H](C)O)NC(=O)[C@H](CCC(=O)O)NC(=O)[C@H](CCCCN)NC(=O)[C@H](Cc2c[nH]cn2)NC(=O)[C@H]([C@@H](C)O)NC(=O)[C@H](CCC(N)=O)NC(=O)CNC(=O)[C@H]2CCCN2C(=O)[C@H](CCC(N)=O)NC(=O)[C@H]([C@@H](C)O)NC(=O)[C@H](C(C)C)NC(=O)[C@H](CCCNC(=N)N)NC1=O
B9: cyclic nNOS β-hairpin peptide T112D (peptide)
peptide: cyclo(THLETTFDGDGTPKTIRVTQ[dP]GQ)
SMILES: CC[C@H](C)[C@@H]1NC(=O)[C@H]([C@@H](C)O)NC(=O)[C@H](CCCCN)NC(=O)[C@@H]2CCCN2C(=O)[C@H]([C@@H](C)O)NC(=O)CNC(=O)[C@H](CC(=O)O)NC(=O)CNC(=O)[C@H](CC(=O)O)NC(=O)[C@H](Cc2ccccc2)NC(=O)[C@H]([C@@H](C)O)NC(=O)[C@H]([C@@H](C)O)NC(=O)[C@H](CCC(=O)O)NC(=O)[C@H](CC(C)C)NC(=O)[C@H](Cc2c[nH]cn2)NC(=O)[C@H]([C@@H](C)O)NC(=O)[C@H](CCC(N)=O)NC(=O)CNC(=O)[C@H]2CCCN2C(=O)[C@H](CCC(N)=O)NC(=O)[C@H]([C@@H](C)O)NC(=O)[C@H](C(C)C)NC(=O)[C@H](CCCNC(=N)N)NC1=O
B10: cyclic nNOS β-hairpin peptide T116C (peptide)
peptide: cyclo(THLETTFTGDGCPKTIRVTQ[dP]GQ)
SMILES: CC[C@H](C)[C@@H]1NC(=O)[C@H]([C@@H](C)O)NC(=O)[C@H](CCCCN)NC(=O)[C@@H]2CCCN2C(=O)[C@H](CS)NC(=O)CNC(=O)[C@H](CC(=O)O)NC(=O)CNC(=O)[C@H]([C@@H](C)O)NC(=O)[C@H](Cc2ccccc2)NC(=O)[C@H]([C@@H](C)O)NC(=O)[C@H]([C@@H](C)O)NC(=O)[C@H](CCC(=O)O)NC(=O)[C@H](CC(C)C)NC(=O)[C@H](Cc2c[nH]cn2)NC(=O)[C@H]([C@@H](C)O)NC(=O)[C@H](CCC(N)=O)NC(=O)CNC(=O)[C@H]2CCCN2C(=O)[C@H](CCC(N)=O)NC(=O)[C@H]([C@@H](C)O)NC(=O)[C@H](C(C)C)NC(=O)[C@H](CCCNC(=N)N)NC1=O
B11: cyclic nNOS β-hairpin peptide T116P (peptide)
peptide: cyclo(THLETTFTGDGPPKTIRVTQ[dP]GQ)
SMILES: CC[C@H](C)[C@@H]1NC(=O)[C@H]([C@@H](C)O)NC(=O)[C@H](CCCCN)NC(=O)[C@@H]2CCCN2C(=O)[C@@H]2CCCN2C(=O)CNC(=O)[C@H](CC(=O)O)NC(=O)CNC(=O)[C@H]([C@@H](C)O)NC(=O)[C@H](Cc2ccccc2)NC(=O)[C@H]([C@@H](C)O)NC(=O)[C@H]([C@@H](C)O)NC(=O)[C@H](CCC(=O)O)NC(=O)[C@H](CC(C)C)NC(=O)[C@H](Cc2c[nH]cn2)NC(=O)[C@H]([C@@H](C)O)NC(=O)[C@H](CCC(N)=O)NC(=O)CNC(=O)[C@H]2CCCN2C(=O)[C@H](CCC(N)=O)NC(=O)[C@H]([C@@H](C)O)NC(=O)[C@H](C(C)C)NC(=O)[C@H](CCCNC(=N)N)NC1=O

For this experiment, the target named is T1, (7× His)-PSD-95-PDZ2 wild type (UniProt P78352 160-246).
T1 construct: domain: PDZ2; recombinant from E. coli; also called PSD-95-PDZ2 WT; not shown: 7x His tag
T1 sequence (P78352 160-246): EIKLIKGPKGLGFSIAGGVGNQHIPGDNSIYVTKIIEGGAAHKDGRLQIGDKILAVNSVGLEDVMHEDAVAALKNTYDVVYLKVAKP
The experiment can be described thus: FP competition.
By Ki is commonly meant the dissociation constant of the complex between target and ligand, obtained from inhibition or displacement. As for B1, the Ki is 1180 nM and the “Relative Ki (Ki mut/Ki WT)” value worked out at 0.79.
In the case of B2, the Ki was 1760 nM and the “Relative Ki (Ki mut/Ki WT)” value worked out at 1.17.
Take B3: affinity was put at a Ki of 510 nM and the “Relative Ki (Ki mut/Ki WT)” value was 0.34.
On the same counts, the results for B4 are 24500 nM and 2.51.
For the molecule B5, the Ki was found to be 1040 nM and the “Relative Ki (Ki mut/Ki WT)” value was found to be 0.69.
On to B6, for which the inhibition constant Ki was 4500 nM and the “Relative Ki (Ki mut/Ki WT)” value is 3.
In the case of B7, the Ki amounted to 1600 nM and the “Relative Ki (Ki mut/Ki WT)” value amounted to 1.07.
On the same counts, the results for B8 are 1200 nM and 0.8.
As to B9, the affinity corresponds to a Ki of 950 nM and the “Relative Ki (Ki mut/Ki WT)” value was found to be 0.63.
With B10, affinity was put at a Ki of 1360 nM and the “Relative Ki (Ki mut/Ki WT)” value stood at 0.91.
On the same counts, the results for B11 are 1160 nM and 0.77.
